# Laboratory results from paper PMC8528075.
# Molecular target: SARS-CoV-2 S2P spike (prefusion-stabilized trimer) (SARS-CoV-2 Wuhan-Hu-1)
# Assay: cryo-EM structure
substance,measurement,value
2–36 Fab,stoichiometry N (Fabs per spike),3
